Binding result and EC50 data for 3 molecules are collected here from US20170152308A1 (Biogen, published 2017).

Where two headings read alike, the source gives them in different places. No end group written: not given here.

Experiment [1] concerns the target T1, mutant TDP-43 domain IV (TDP-43 258-414 AMM321GGG) (human, UniProt Q13148 258-414).
T1 construct: Recombinant
T1 chain: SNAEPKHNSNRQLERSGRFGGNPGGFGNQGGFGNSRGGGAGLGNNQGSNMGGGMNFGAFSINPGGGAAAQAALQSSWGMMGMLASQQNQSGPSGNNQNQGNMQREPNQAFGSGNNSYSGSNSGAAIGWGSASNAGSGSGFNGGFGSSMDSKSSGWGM
Kind of experiment: direct ELISA, coated antigen.

Experiment [2] has as its target T2, TDP-43 C terminal fragment 258-319 (human, UniProt Q13148 258-319).
T2 construct: Recombinant fragment
Kind of experiment: direct ELISA, coated fragments.

Experiment [3] deals with T3, TDP-43 C terminal fragment 340-414 (human, UniProt Q13148 340-414).
T3 construct: Recombinant fragment
Kind of experiment: direct ELISA, coated fragments.

Experiment [4] addresses T4, 6xHis-SUMO-TDP-43 (220-414) (human, UniProt Q13148 220-414).
T4 construct: Captured on the plate by an anti-6xHis antibody; also called 6xHis/SUMO tagged truncated TDP-43; not shown: N-terminal 6xHis and SUMO tags from a modified pET19-b vector
Kind of experiment: capture ELISA, antigen held by anti-6xHis antibody. The gist of the method: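 Anti-6×His antibody captured 6×His-SUMO-TDP-43 (1.7 μM, 1 hr RT) in PBS with 1% BSA, 300 mM arginine and 0.1% PEG 5000, pH 7.5, avoiding direct adsorption. Three-fold antibody titrations were incubated 1 hr RT and detected with HRP anti-human IgG Fc colorimetrically. EC₅₀ from a four-parameter logistic fit.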

The target in experiment [5] is T5, synthetic biotinylated peptide TDP-43 316-353 (human, biotinylated (site not stated)).
T5 construct: On streptavidin-coated plates
T5 peptide: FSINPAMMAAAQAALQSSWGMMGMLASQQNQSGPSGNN
Kind of experiment: direct ELISA, biotinylated peptide on streptavidin plate.

The target in experiment [6] is T6, synthetic biotinylated peptide TDP-43 316-343 (human, biotinylated (site not stated)).
T6 construct: On streptavidin-coated plates
T6 peptide: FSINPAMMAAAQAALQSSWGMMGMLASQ
The description is as above.

Experiment [7] concerns the target T7, synthetic biotinylated peptide TDP-43 316-333 (human, also: biotinylated (site not given here)).
T7 construct: On streptavidin-coated plates
T7 peptide: FSINPAMMAAAQAALQSS
The description is as above.

For the next experiment, the target named is T8, BSA (bovine, UniProt P02769).
T8 construct: control coating in the EC50 ELISA; also called bovine serum albumin (Sigma, Buchs, Switzerland)
T8 sequence (P02769 25-607 limits assumed): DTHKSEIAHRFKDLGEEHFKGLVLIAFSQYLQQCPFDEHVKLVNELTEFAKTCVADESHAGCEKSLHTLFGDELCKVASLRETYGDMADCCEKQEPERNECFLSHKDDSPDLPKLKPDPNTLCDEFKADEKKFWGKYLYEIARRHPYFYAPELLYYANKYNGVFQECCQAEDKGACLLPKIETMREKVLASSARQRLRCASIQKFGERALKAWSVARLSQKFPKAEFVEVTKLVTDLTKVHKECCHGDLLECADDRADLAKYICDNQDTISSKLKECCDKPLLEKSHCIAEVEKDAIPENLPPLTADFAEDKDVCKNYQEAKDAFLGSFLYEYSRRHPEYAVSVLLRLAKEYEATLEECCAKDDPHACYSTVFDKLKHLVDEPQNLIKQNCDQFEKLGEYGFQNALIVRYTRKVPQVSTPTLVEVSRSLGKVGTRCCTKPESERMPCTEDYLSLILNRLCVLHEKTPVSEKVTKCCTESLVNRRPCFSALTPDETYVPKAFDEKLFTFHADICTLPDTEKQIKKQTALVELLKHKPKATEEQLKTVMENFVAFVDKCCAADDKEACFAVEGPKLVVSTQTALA
Kind of experiment: direct ELISA, BSA coated at 5 ug/ml as control, OD 450. As to the method:
To determine the half maximal effective concentration (EC₅₀) of the human-derived TDP-43-specific antibodies for human TDP-43 and to evaluate target-specificity, 96 well microplates (Corning) were coated with recombinant full length TDP-43 (Biogen Idec, USA), Escherichia coli extract and BSA (Sigma, Buchs, Switzerland), diluted to a concentration of 5 μg/ml in carbonate ELISA coating buffer (pH 9.6) overnight at 4° C. […] Non-specific binding sites were blocked for 1 hr. at room temperature with PBS containing 2% BSA (Sigma, Buchs, Switzerland). Human TDP-43-specific antibodies were diluted to the indicated concentrations and incubated 1 hr. at room temperature. Binding was determined using a donkey anti-human IgGγ-specific secondary antibody conjugated with HRP (Jackson ImmunoResearch, USA), followed by measurement of HRP activity in a standard colorimetric assay. EC₅₀ values were estimated by a non-linear regression using GraphPad Prism software (San Diego, USA).
The half maximal effective concentration (EC₅₀) of the human-derived TDP-43-specific antibodies for human TDP-43 and their target target-specificity was determined substantially as described in Example 2 above. […]

Experiment [8] has as its target T9, His-huTDP-43 domain I (amino acid residues 2-106) (human).
T9 construct: Amino terminal His-tagged fragment, E. coli; also called N-terminal domain
T9 chain: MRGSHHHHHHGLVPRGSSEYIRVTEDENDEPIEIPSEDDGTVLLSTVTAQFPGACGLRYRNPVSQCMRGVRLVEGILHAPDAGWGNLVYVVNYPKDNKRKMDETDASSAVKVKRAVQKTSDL
Kind of experiment: direct ELISA, TDP-43 fragments coated at 6.6 ug/ml, OD 450. As to the method: (§1) Non-specific binding sites were blocked for 1 hr. at room temperature with PBST containing 2% BSA (Sigma, Buchs, Switzerland). Antibodies were incubated 1 hr. at room temperature. Binding was determined using either a donkey anti-human IgGγ-specific antibody conjugated with HRP (Jackson ImmunoResearch, USA) or a goat-anti mouse IgG (H+L)-specific secondary antibody conjugated with HRP (Jackson ImmunoResearch, USA)., followed by measurement of HRP activity in a standard colorimetric assay.

In experiment [9] the target is T10, recombinant full-length His-tagged human TDP-43 (2-414) (human, UniProt Q13148 2-414).
T10 construct: Amino terminal His tag, made in E. coli, purified in 8 M urea; also called full length TDP-43; full-length TDP-43
Nature of the experiment: direct ELISA, coated antigen. The gist of the method:
(§2)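 Plates coated overnight at 4° C with full-length TDP-43 at 5 μg/ml in carbonate buffer pH 9.6, with E. coli extract and BSA coated alongside. After blocking with 2% BSA, antibodies incubated 1 hr at room temperature and detected by HRP anti-human IgGγ colorimetric read-out. EC₅₀ from non-linear regression.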

Experiment [10] concerns the target T10, recombinant full-length His-tagged …. Nature of the experiment: direct ELISA, coated antigen. In a few lines: as §2
The source holds these as a separate data set.

In experiment [11] the target is T9, His-huTDP-43 domain I (amino acid …). Nature of the experiment: direct ELISA, His-tagged TDP-43 fragments coated at 6.6 ug/ml, OD 450. The procedure: as §1
Experiment [12] addresses T11, His-huTDP-43 domain III (amino acid residues 183-273) (human).
T11 construct: Amino terminal His-tagged fragment, E. coli
T11 chain: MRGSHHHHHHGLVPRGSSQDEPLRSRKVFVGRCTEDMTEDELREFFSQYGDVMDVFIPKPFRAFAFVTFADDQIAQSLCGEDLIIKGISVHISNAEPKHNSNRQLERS
The experiment is described as above. The procedure: as §1

Experiment [13] deals with T12, His-huTDP-43 domain IV (amino acid residues 258-414) (human, UniProt Q13148 258-414).
T12 construct: Amino terminal His-tagged fragment, E. coli, solubilized in 8 M urea; also called Glycine-rich domain
The description is as above. The procedure: as §1

The target in experiment [14] is T13, His-huTDP-43 domain II (amino acid residues 99-204) (human).
T13 construct: Amino terminal His-tagged fragment, E. coli
T13 chain: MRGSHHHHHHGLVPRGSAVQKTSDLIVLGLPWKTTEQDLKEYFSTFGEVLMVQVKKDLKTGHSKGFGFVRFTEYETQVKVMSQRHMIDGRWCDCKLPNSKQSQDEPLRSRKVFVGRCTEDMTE
Kind of experiment: direct ELISA, coated antigen; direct ELISA, domain coated at 6.6 ug/ml (Example 1, FIG. 2F). As to the method:
as §1
(§3) The polypeptides were coated onto ELISA plates at equal coating concentration of 6.6 μg/ml (recombinant TDP-43 and TDP-43 fragments) or 3.3 μg/ml (synthetic peptides). Binding of the human-derived antibodies was determined by direct ELISA.

Experiment [15] addresses T13, His-huTDP-43 domain II (amino acid …). Nature of the experiment: direct ELISA, His-tagged TDP-43 fragments coated at 6.6 ug/ml, OD 450. The procedure: as §1
The target of experiment [16] is T9, His-huTDP-43 domain I (amino acid …). Nature of the experiment: direct ELISA, coated antigen; direct ELISA, domain coated at 6.6 ug/ml (Example 1, FIG. 2H). As to the method: as §1, §3

B1: NI-205.41D1 (antibody, human IgG1, V domains shown)
VH: EVQLVESGGGLVQPGGSLRLSCAASGFTFSTYYMSWVRQAPGKGLEWVANIKQDGSEKYYVDSVKGRFTISRDNARNSLYLQMHSLRAEDTAVYYCASPPGWWGQGTLVTVSS
VL: DIVMTQTPLSLSVTPGQPASISCKSSQSLLHSDGKTYLYWYLQKPGQPPQLLIYEVSNRFSGVPDRFSGSGSGTDFTLKISRVEAEDVGVYYCMQSIQLPVTFGGGTKVEIK
notes: Human-derived; also called NI-41D1
With B1, the binding result is recorded as “no binding” in experiment [1]; “no binding” in experiment [2]; “no binding” in [3]; “binds” in [5]; “binds” in experiment [6]; “no binding” in [7]. Moreover, the binding result is reported as “no binding (tested: about 4x10^5 pM)” in the experiment with BSA and “no binding” in experiment [8]. In addition, it took 0.1 nM to reach a half-maximal effect in [4] (EC50).

B2: NI-205.113C4 (antibody, human IgG1, V domains shown)
VH: QVQLVQSGAEVKKPGASVKVSCKASGYTFTNYYMHWVRQAPGQGLEWMGIINPSGGRTSYAQKFQGRASMTRDTSTSTVYMEVISLRSEDTAVYYCARQRPSGYSGYGPSESYGNPTDDAFDVWGQGTTVTVSS
VL: SYVLTQPPSVSVAPGQTARITCGGNNIGSRGVHWYQQRPGQAPVLVVYDDSDRPSGIPERFSGSNSGDTATLTISRVEVGDEADYYCQVWDNSSDHLVVFGGGTKLTVL
notes: Human-derived
In the case of B2, the EC50 in experiment [9] and in [10] was 13.2 nM in each case. The binding result is given as “no binding” in [4]; “no binding” in experiment [11]; “no binding” in [12]; “no binding” in [13]; “binds” in experiment [14].

B3: NI-205.87E7 (antibody, human IgG1, V domains shown)
VH: EVQLLESGGGLVQPGGSLRLSCAASGFTFSSYAMSWVRQAPGKGLEWVSAISGGGDRTYSADSVKGRFTISRDNSKNTLYLQINSLRVEDTAVYYCAQGGGGEMTAVTMDGTYYGMDVWGQGTTVTVSS
VL: QSALTQPRSVSGSPGQSITISCTGTSSNVGTYKFVSWYQQHPGKAPKLMIYDVTKRPSGVPDRFSGSKSGNTASLTISGLQAEDEADYYCCSYAGSYTYVFGSGTKVTVL
notes: Human-derived
Regarding B3, the concentration for a half-maximal effect (EC50) in experiment [9] and in experiment [10] was 17.2 nM throughout. Further, the binding result is on record as “no binding” in experiment [4]; “no binding” in experiment [15]; “no binding” in experiment [12]; “no binding” in [13]; “binds” in [16].
